Experimental data reported in the supplement of paper PMC10567573.

B1: SLC19A2 (parent)
chain: IYPVWTYSYLVLLFPVFLATDYLR
B2: MIA2 (parent)
chain: SVIEPVQESSFRSRKIAVEDENDL

Variants of: B1
Assay: protein stability index of a GFP-peptide fusion (GPS, HEK-293T) (PSI 1-6); higher = more stable
Conditions: c terminus: a fixed tail appended
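Further: lentivirally expressed fusions sorted by FACS into six bins by GFP to DsRed ratio, PSI derived from sequencing read proportions per bin multiplied by bin number.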

Protein stability index of substitutions, site by site:
S8: H 3.06 | W 2.99 | I 2.41 | C 3.17 | E 3.31 | A 4.5 | D 3.67 | Q 3.59 | G 2.84 | L 2.69 | K 3.14 | P 3.7 | R 3.57 | F 2.43 | M 3.15
Y7: E 3.72 | H 1.33 | M 2.32 | F 2.84 | Q 2.58 | N 3.72 | I 2.4 | W 3.7 | T 2.58 | R 3.07
I1: T 3.48 | S 2.54 | P 3.33 | Y 1.63 | V 4.95 | H 4.44 | A 2.12 | L 3.49 | N 2.98 | G 2.67 | R 1.87 | M 2.3 | W 2.38 | F 2.21
L12: I 3.39 | A 3.41 | T 2.41 | F 2.25 | N 1.72 | K 3.56 | P 3.92 | M 2.48 | V 2.6 | Q 3.02 | H 3.3 | D 2.3 | R 2.37 | Y 2.31 | S 2.91 | W 3.3
Y9: Q 2.02 | N 3.02 | M 2.97 | T 2.67 | C 4.17 | D 3.8 | E 2.2 | R 4.42 | K 2.81 | H 2.97 | I 3.67 | V 3.11 | F 1.75 | L 2.46
V11: H 3.87 | L 2.77 | A 3.63 | W 4.19 | N 2.92 | M 1.95 | I 3.28 | P 2.04 | D 3.85 | C 3.16 | F 2.34 | Q 4.14 | G 3.44
Y2: H 2.29 | D 2.77 | A 3.21 | I 4.61 | W 3.59 | Q 3.11 | S 2.56 | V 3.19 | M 3.15 | P 2.62 | L 2.15 | T 4.06 | E 2.56 | G 1.97 | F 3.09 | K 2.44
P3: C 3.34 | W 3.05 | A 3.47 | G 3.79 | H 3.02 | K 2.02 | S 3.26 | L 3.98 | Y 2.94 | E 2.5 | N 2.57
F14: R 3.83 | K 1.99 | L 3.35 | M 4.1 | I 3.07 | H 3.32 | C 2.63 | T 3.75 | Q 2.98 | G 3.54 | P 2.48 | A 2.08 | E 2.74
L13: Y 2.87 | S 2.34 | W 3.58 | T 1.87 | I 2.53 | C 2.38 | N 2.64 | D 3.57 | A 3.41 | E 2.6 | F 2.64 | G 1.19 | M 3.06 | V 3.06 | P 1.48 | Q 4.28
W5: P 3.19 | V 2.65 | K 4.35 | G 4.5 | N 2.25 | M 2.65 | D 2.3 | H 3.15 | L 2.19 | S 2.89 | C 3.27 | R 3.39 | Y 2.72 | F 3.25 | A 3.28 | I 4.83 | E 3.02
T6: L 4.55 | K 3.04 | S 2.86 | V 2.9 | M 2.95 | Q 2.73 | Y 3.51 | N 3.48 | E 2.71 | A 2.63 | R 2.39 | D 2.08 | H 3.42
L10: R 2.9 | K 1.93 | N 4.14 | G 3.23 | E 3.11 | T 2.94 | M 2.85 | W 3.88 | I 2.9 | Y 3.63 | P 2.29 | H 3.75 | Q 2.81 | D 4.06 | V 3.74 | S 3.94
V4: Q 3.11 | Y 2.91 | H 3.32 | A 2.73 | L 3.73 | K 2.96 | M 2.76 | N 3.44 | T 3.3 | F 3.35 | S 3.21 | G 3.35 | I 3.46 | C 2.33 | E 3.43 | D 2.85

Variants of: B2
Assay: as above
Conditions: c terminus: a fixed tail appended

Protein stability index: each site, then its substitutions
N22: H 5.43 | P 4.96 | K 5.04 | L 4.8 | R 5.09 | C 5 | F 4.96 | W 4.35 | A 5.47 | Y 4.53 | Q 5.77 | E 5.08 | V 5.73 | D 5.84 | T 5.33 | I 4.89 | M 4.74 | G 5.04 | S 3.82
D23: Y 4.24 | Q 5.83 | R 5.07 | M 4.82 | E 5.54 | F 3.65 | C 4.39 | N 5.1 | A 5.26 | S 5.2 | L 4.63 | V 5.1 | P 4.28 | T 4.71 | H 4.95 | I 4.64 | K 4.95 | W 3.86 | G 4.72
D20: E 5.72 | M 4.8 | W 4.1 | N 5.57 | R 4.94 | G 5.21 | C 4.89 | I 4.64 | V 4.57 | P 3.94 | A 4.63 | K 5.13 | H 4.35 | Q 5.25 | Y 4.18 | T 5.38 | F 3.83 | L 4.42
E21: I 4.46 | S 5.23 | Y 4.47 | V 4.9 | F 4.31 | R 4.7 | D 5.38 | M 4.32 | K 5.05 | Q 5.29 | N 4.74 | W 3.85 | L 4.62 | G 5.27 | C 4.32 | H 4.63 | T 5.19 | P 4.42 | A 4.83
L24: Y 4.92 | D 5.26 | S 5.88 | W 4.73 | T 5.57 | K 5.12 | G 5.75 | M 5.31 | E 5.67 | C 5.32 | P 5.42 | H 5 | V 5.82 | R 5.49 | F 5.19 | A 5.43 | I 4.66 | Q 5.51 | N 5.67
V18: Y 5.21 | D 4.18 | M 4.43 | W 5.16 | H 5.36 | R 5.72 | Q 5.15 | K 5.63 | I 5.3 | A 5.35 | N 5.1 | S 5.69 | F 5.36 | T 4.94 | G 5.18 | L 4.56 | C 5.03 | P 5.32 | E 5.53
E19: T 5.02 | L 4.56 | Y 4.67 | A 5.13 | P 5.32 | I 4.25 | F 4.53 | S 5.31 | N 5.08 | H 4.56 | R 4.51 | D 5.03 | C 4.62 | V 5.03 | G 4.5 | Q 5.33 | K 5.35 | W 4.15 | M 4.62
A17: W 4.92 | Y 4.87
